In patent US20100004432, “APTAMER AGAINST MIDKINE AND USE THEREOF” (RIBOMIC INC., published 2010):

T1: midkine (full-length) (Homo sapiens, UniProt P21741 P21741:23-143)
T1 sequence: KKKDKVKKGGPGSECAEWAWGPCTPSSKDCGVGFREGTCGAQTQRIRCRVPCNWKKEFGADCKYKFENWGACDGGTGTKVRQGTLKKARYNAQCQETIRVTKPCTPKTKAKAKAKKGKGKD


Molecular target: T1, midkine (full-length)
Test: cell_activity; UMR106 migration inhibition, 500 nM RNA
Settings: tags: expressed in yeast
Method: (§1) Chem. 276 (19), 15868-15875, 2001). […] 30 μL of 1.5 μM midkine was applied to the outer surface of the membrane of Chemotaxicell (membrane pore diameter 8 μm, manufactured by Kurabo) to immobilize the midkine to the outer surface of the membrane. The midkine-immobilized Chemotaxicell was placed on a 24-well culture plate containing 500 μL of a medium (supplemented with 0.3% bovine serum albumin, Dulbecco's Modified Eagle's medium) supplemented with each RNA aptamer added thereto at 100 nM. 200 μL of UMR106 cells were placed in the inner layer of the Chemotaxicell chamber at a density of 1×10⁶ cells/mL, and cultured at 37° C. for 4 hours. The cells remaining in the inner layer of the Chemotaxicell chamber were removed, and the cells that had infiltrated and adhered to the midkine-applied surface were fixed with methanol. The Chemotaxicell chamber was immersed in a 1% aqueous solution of Crystal Violet for 30 minutes to stain the cells. After the Chemotaxicell chamber was washed with distilled water and dried, the pigment was extracted with a mixed solution of 200 μL of 1% SDS and 1% triton X100. 150 μL of the extract was transferred to a 96-well microplate, and its absorbance at 590 nm was determined.
(§2) The aptamer shown by SEQ ID NO:4 is 77 nucleotides long, having the 2′ position of the ribose of the pyrimidine nucleotide thereof fluoro-substituted. To enable the chemical synthesis, to reduce the toxicity, and to improve the stability in the blood, miniaturization and stabilization of this aptamer were performed. The operations of miniaturization and stabilization were performed on the basis of the secondary structure estimated by the MFOLD program, and the activity was evaluated by a cell migration inhibition experiment. In the cell migration inhibition experiment, the RNA concentration was 100 nM or 500 nM. Since some errors occur in experimental results depending on cell condition, a previously assayed sample was included as a positive control in each measurement.

Binder	activity
GGGAGAGGAACGACGAGGAGUAGCCGGAAAGAAGGCGGCGUC (ssRNA, 2'-F pyrimidines; 2'-OMe purines of second stem: gggagaggaac(F)gac(F)gaggagu(F)ag(M)c(F)c(F)ggaaagaag(M)g(M)c(F)ggc(F)gu(F)c(F)) [SEQ ID NO:20-3]	60 % of SEQ ID NO:4
GGGAGAGGAACGACGAGGAGUAGCCGGAAAGAAGGCGGCGUC (ssRNA, 2'-F pyrimidines; 20-5 pattern plus 2'-OMe: c(F)g(M)a(M)c(F), gga(M)aa(M)g(M)aagg, 3' g(M)u(F)c(F)) [SEQ ID NO:20-12]	53 % of SEQ ID NO:4
GGGAGAGGAACGACGAGGAGUAGCCGGAAAGAAGGCGGCGUC (ssRNA, 2'-F pyrimidines; 20-5 pattern plus 2'-OMe first stem: c(F)g(M)a(M)c(F)g and 3' g(M)u(F)c(F)) [SEQ ID NO:20-9]	130 % of SEQ ID NO:4
GGGAGAGGAACGACGAGGAGUAGCCGGAAAGAAGGCGGCGUC (ssRNA, 2'-F pyrimidines; 20-5 pattern plus 2'-OMe: c(F)g(M)a(M)c(F), gga(M)aa(M)gaagg, c(F)g(M)g(M)c(F)g(M)u(F)c(F)) [SEQ ID NO:20-11]	76 % of SEQ ID NO:4
GGGAGAGGAACGACGAGGAGUAGCCGGAAAGAAGGCGGCGUC (ssRNA, 2'-F pyrimidines; 20-5 pattern plus 2'-OMe near 3' end: ggc(F)g(M)g(M)c(F)gu(F)c(F)) [SEQ ID NO:20-10]	86 % of SEQ ID NO:4
GGGAGAGGAACGACGAGGAGUAGCCGGAAAGAAGGCGGCGUC (ssRNA, 2'-F pyrimidines; 20-5 pattern plus 2'-OMe: c(F)g(M)a(M)c(F), gga(M)aa(M)gaag(M)g, 3' g(M)u(F)c(F)) [SEQ ID NO:20-13]	89 % of SEQ ID NO:4
GGGAGAGGAACGACGAGGAGUAGCCGGAAAGAAGGCGGCGUC (ssRNA, 2'-F pyrimidines; 20-1 pattern (2'-OMe 5' single strand) plus 2'-OMe A in bulge: ga(M)gga(M)gu(F)a(M)g) [SEQ ID NO:20-5]	88 % of SEQ ID NO:4
GGGAGAGGAACGACGAGGAGUAGCCGGAAAGAAGGCGGCGUC (ssRNA, 2'-F pyrimidines; 2'-OMe on all purines of the 5' single-stranded part g1-a10) [SEQ ID NO:20-1]	109 % of SEQ ID NO:4
GGGAGAGGAACGACGAGGAGUAGCCGGAAAGAAGGCGGCGUC (ssRNA, 2'-F pyrimidines; 2'-OMe purines of first stem: gggagaggaac(F)g(M)a(M)c(F)g(M)aggagu(F)agc(F)c(F)ggaaagaaggc(F)ggc(F)g(M)u(F)c(F)) [SEQ ID NO:20-2]	84 % of SEQ ID NO:4
GGGAGAGGAACGACGAGGAGUAGCCGGAAAGAAGGCGGCGUC (ssRNA, 2'-F pyrimidines; 2'-OMe G in loop: c(F)c(F)g(M)g(M)aaag(M)aagg) [SEQ ID NO:20-4]	60 % of SEQ ID NO:4
GGGAGAGGAACGACGAGGAGUAGCCGGAAAGAAGGCGGCGUC (ssRNA, 2'-F pyrimidines; 20-1 pattern plus 2'-OMe A in loop: gga(M)aa(M)gaagg) [SEQ ID NO:20-7]	88 % of SEQ ID NO:4
GGGAGAGGAACGACGAGGAGUAGCCGGAAAGAAGGCGGCGUC (ssRNA, 2'-F pyrimidines; 20-1 pattern plus 2'-OMe G in bulge: gag(M)g(M)ag(M)u(F)ag) [SEQ ID NO:20-6]	69 % of SEQ ID NO:4
GGGAGAGGAACGACGAGGAGUAGCCGGAAAGAAGGCGGCGUC (ssRNA, 2'-F pyrimidines; 20-5 pattern plus 2'-OMe A in loop: gga(M)aa(M)gaagg) [SEQ ID NO:20-8]	99 % of SEQ ID NO:4

Molecular target: T1, midkine (full-length)
Test: as above
Settings: tags: expressed in yeast
Remark: another data set of the same source
Method: (§3) 30 μL of 1.5 μM midkine was applied to the outer surface of the membrane of Chemotaxicell (membrane pore diameter 8 μm, manufactured by Kurabo) to immobilize the midkine to the outer surface of the membrane. The midkine-immobilized Chemotaxicell was placed on a 24-well culture plate containing 500 μL of a medium (supplemented with 0.3% bovine serum albumin, Dulbecco's Modified Eagle's medium) supplemented with each RNA aptamer added thereto at 100 nM. 200 μL of UMR106 cells were placed in the inner layer of the Chemotaxicell chamber at a density of 1×10⁶ cells/mL, and cultured at 37° C. for 4 hours. The cells remaining in the inner layer of the Chemotaxicell chamber were removed, and the cells that had infiltrated and adhered to the midkine-applied surface were fixed with methanol. The Chemotaxicell chamber was immersed in a 1% aqueous solution of Crystal Violet for 30 minutes to stain the cells. After the Chemotaxicell chamber was washed with distilled water and dried, the pigment was extracted with a mixed solution of 200 μL of 1% SDS and 1% triton X100. 150 μL of the extract was transferred to a 96-well microplate, and its absorbance at 590 nm was determined.
as §2, with “NO:5” for “NO:4”, “2′-position” for “2′ position”, “nucleotide” for “nucleotide thereof”, “The RNA concentration in” for “In”, “experiment” for “experiment, the RNA concentration”

Binder	activity
GGGAAGGAGGAAGUGCACAGGGGUUGGUGUCGGGUGCAC (ssRNA, g(F)g(F)g(F)a(M)a(M)g(F)g(F)a(M)g(F)g(F)a(M)a(M)g(M)u(F)g(M)c(F)a(M)c(F)a(M)g(F)g(M)g(M)g(M)u(F)u(F)g(M)g(M)u(F)g(M)u(F)c(F)g(F)g(F)g(M)u(F)g(M)c(F)a(M)c(F); M 2'-OMe, F 2'-F) [SEQ ID NO:61-3]	80 % of SEQ ID NO:40
GGGAAGGAGGAAGUGCACAGGGGUUGGUGUCGGGUGCAC (ssRNA, as 61-4 plus 2'-OMe: c(F)g(M)g(M)gu(F) near 3' end) [SEQ ID NO:61-7]	46 % of SEQ ID NO:40
GGGAAGGAGGAAGUGCACAGGGGUUGGUGUCGGGUGCAC (ssRNA, as 61-4 but a(M)g(M)gg(M)g(M) in place of aggg(M)g(M)) [SEQ ID NO:61-8]	54 % of SEQ ID NO:40
GGGAAGGAGGAAGUGCACAGGGGUUGGUGUCGGGUGCAC (ssRNA, as 61-4 plus 5' branched PEG40k and 3' idT) [SEQ ID NO:61-5]	40 % of SEQ ID NO:40
GGGAAGGAGGAAGUGCACAGGGGUUGGUGUCGGGUGCAC (ssRNA, as 61-4 plus PEG30k at both ends) [SEQ ID NO:61-6]	57 % of SEQ ID NO:40
GGGAAGGAGGAAGUGCACAGGGGUUGGUGUCGGGUGCAC (ssRNA, ggga(M)a(M)gga(M)gga(M)a(M)g(M)u(F)g(M)c(F)a(M)c(F)aggg(M)g(M)u(F)u(F)g(M)g(M)u(F)g(M)u(F)c(F)gggu(F)g(M)c(F)a(M)c(F); M 2'-OMe, F 2'-F) [SEQ ID NO:61-4]	86 % of SEQ ID NO:40

Molecular target: T1, midkine (full-length)
Test: cell_activity; 500 nM RNA
Settings: tags: expressed in yeast
Method: as §1, §2

Binder	activity
GGGACGAGGAGUAGCCGGAAAGAAGGCGGCGUC (ssRNA, 2'-F pyrimidines) [SEQ ID NO:22]	70 % of SEQ 4 inhibition
GGGAGAGGAACGACGAGGAGUAGCCGGAAAGAAGGCGGCGUC (ssRNA, 2'-F pyrimidines) [SEQ ID NO:20]	97 % of SEQ 4 inhibition
GGCGAGGAGUAGCCGGAAAGAAGGCGGCGCC (ssRNA, 2'-F pyrimidines) [SEQ ID NO:28]	71 % of SEQ 4 inhibition
GACGAGGAGUAGCCGGAAAGAAGGCGGCGUC (ssRNA, 2'-F pyrimidines) [SEQ ID NO:29]	74 % of SEQ 4 inhibition
GGGAGAGGAACGACGAGGAGUAGCCGAAAGGCGGCGUC (ssRNA, 2'-F pyrimidines) [SEQ ID NO:23]	66 % of SEQ 4 inhibition
GGGAGAGGAACGACGAGGAGUAGCCUUCGGGCGGCGUC (ssRNA, 2'-F pyrimidines) [SEQ ID NO:24]	65 % of SEQ 4 inhibition
GGGAGAGGAACGACGAGAACAGCCGGAAAGAAGGCGGCGUC (ssRNA, 2'-F pyrimidines) [SEQ ID NO:25]	81 % of SEQ 4 inhibition
GGGAGAGGAACGACGAGGGUAGCCGGAAAGAAGGCGGCGUC (ssRNA, 2'-F pyrimidines) [SEQ ID NO:27]	78 % of SEQ 4 inhibition
GGGAGAGGAACGACGAGAGUAGCCGGAAAGAAGGCGGCGUC (ssRNA, 2'-F pyrimidines) [SEQ ID NO:26]	18 % of SEQ 4 inhibition

Molecular target: T1, midkine (full-length)
Test: cell_activity; 100 nM RNA
Settings: tags: expressed in yeast
Method: as §3
as §2, with “NO:5” for “NO:4”, “2′-position” for “2′ position”, “nucleotide” for “nucleotide thereof”, “The RNA concentration in” for “In”, “experiment” for “experiment, the RNA concentration”

Binder	activity
SEQ ID NO:30 (ssRNA, 2'-F pyrimidines) RNA: GGAGAAGAGGAAGUGUGCACAGGGGUUGGUGUCGGGUGCAUACAGUAUAAGAUAGAGGACAGGAAUGAGGA	44 % of SEQ 5 inhibition
SEQ ID NO:36 (ssRNA, 2'-F pyrimidines) RNA: GGGAGAGGAGAAGAGGAAGUGCACAGGGGUUGGUGUCGGGUGCACAGUAUAAG	91 % of SEQ 5 inhibition
SEQ ID NO:36-1 (ssRNA, 2'-F pyrimidines; 2'-OMe on all of 5' single strand (nt 1-18)) RNA: GGGAGAGGAGAAGAGGAAGUGCACAGGGGUUGGUGUCGGGUGCACAGUAUAAG	60 % of SEQ 5 inhibition
SEQ ID NO:31 (ssRNA, 2'-F pyrimidines) RNA: GGGAGAGGAGAAGAGGAAGUGUGCACAGGGGUUGGUGUCGGGUGCAUACAGUAUAAGAUAGAGGACA	94 % of SEQ 5 inhibition
SEQ ID NO:43 (ssRNA, 2'-F pyrimidines) RNA: GGGAGAGGAGAAGAGGAGUGCACAGGGGUUGGUGUCGGGUGCACAGUAUAAG	42 % of SEQ 5 inhibition
SEQ ID NO:32 (ssRNA, 2'-F pyrimidines) RNA: GGGAGAGGAGAAGAGGAAGUGUGCACAGGGGUUGGUGUCGGGUGCAUACAGUAUAAG	100 % of SEQ 5 inhibition
GGGAGAGGAGAAGAGGAAGGCACAGGGGUUGGUGUCGGGUGCCAG (ssRNA, 2'-F pyrimidines) [SEQ ID NO:39]	52 % of SEQ 5 inhibition
SEQ ID NO:35 (ssRNA, 2'-F pyrimidines) RNA: GGGAGAGGAGAAGAGGAAGUGUGCACAGGGGUUGGUGUCGGGUGCAUACAG	90 % of SEQ 5 inhibition
SEQ ID NO:41 (ssRNA, 2'-F pyrimidines) RNA: GGGAAGGAGAAGAGGAAGUGCACAGGGGUUGGUGUCGGGUGCACAGUAUAAG	97 % of SEQ 5 inhibition
SEQ ID NO:42 (ssRNA, 2'-F pyrimidines) RNA: GGGAGAGGAGAGAGGAAGUGCACAGGGGUUGGUGUCGGGUGCACAGUAUAAG	110 % of SEQ 5 inhibition
SEQ ID NO:33 (ssRNA, 2'-F pyrimidines) RNA: GGAGAAGAGGAAGUGUGCACAGGGGUUGGUGUCGGGUGCAUACAGUAUAAGAUAGAGGACA	40 % of SEQ 5 inhibition
